Article PMC2816023
pKd: −log10 of the molar value.

Biological target: recombinant extracellular region of human calsyntenin-1 (residues 29-859) (human) (UniProt O94985)
Experiment: SPR

UniProt O94985, sequence (O94985 29-859): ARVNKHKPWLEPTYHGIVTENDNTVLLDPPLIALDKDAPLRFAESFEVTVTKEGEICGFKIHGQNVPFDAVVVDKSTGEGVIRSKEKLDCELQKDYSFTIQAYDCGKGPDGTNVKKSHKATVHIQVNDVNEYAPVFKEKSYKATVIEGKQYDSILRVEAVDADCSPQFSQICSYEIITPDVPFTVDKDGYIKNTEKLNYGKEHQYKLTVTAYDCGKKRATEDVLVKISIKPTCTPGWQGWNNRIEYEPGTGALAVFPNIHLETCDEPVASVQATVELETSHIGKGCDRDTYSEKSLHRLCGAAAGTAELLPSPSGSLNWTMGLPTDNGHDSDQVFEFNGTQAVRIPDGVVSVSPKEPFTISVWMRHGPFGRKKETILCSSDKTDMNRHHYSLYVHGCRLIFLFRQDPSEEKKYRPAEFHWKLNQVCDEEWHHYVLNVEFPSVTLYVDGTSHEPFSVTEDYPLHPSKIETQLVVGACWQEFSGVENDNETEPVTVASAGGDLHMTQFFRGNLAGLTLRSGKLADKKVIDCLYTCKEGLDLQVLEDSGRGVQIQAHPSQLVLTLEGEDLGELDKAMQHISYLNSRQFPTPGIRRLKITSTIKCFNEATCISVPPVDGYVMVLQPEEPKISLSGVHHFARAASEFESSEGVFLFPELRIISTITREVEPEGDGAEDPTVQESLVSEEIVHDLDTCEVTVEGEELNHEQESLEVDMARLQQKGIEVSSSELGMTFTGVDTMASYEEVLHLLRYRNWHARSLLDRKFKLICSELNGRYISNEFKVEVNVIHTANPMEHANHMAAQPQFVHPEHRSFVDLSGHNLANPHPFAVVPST

- pKd: 6.62
Substance: fibrillin-1 fragment PF1 (from UniProt P35555 45-2731) (domain or fragment)
